Experimental data taken from the supplement of paper PMC10567573.
± gives the standard deviation.

Test: protein stability index of a GFP-peptide fusion (GPS, HEK-293T) (PSI 1-6); higher = more stable
[1] = treatment: DMSO, c terminus: a fixed tail appended
[2] = treatment: MLN4924 1 uM, 8 h, c terminus: a fixed tail appended
[3] = treatment: DMSO, c terminus: native
[4] = treatment: MLN4924 1 uM, 8 h, c terminus: native
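Note: 24-mer peptide tiles fused after GFP, lentivirally expressed, FACS-sorted into six equal bins by GFP/DsRed ratio, decoded by Illumina sequencing, PSI is the read-weighted mean bin number.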

Sequence: GGGDISVKELGTVMRMLGQTPTKE [TNNC2]
- protein stability index [1]: 4.04 ± 0.05
- protein stability index [2]: 3.64 ± 0.83

Sequence: LAEYCVKTKAPAPDEGSDLFYDDY [CDC34]
- protein stability index [1]: 4.12 ± 0.24
- protein stability index [2]: 4.33 ± 0.41

Sequence: SLRENDFIEIELDRQELTYQELLR [ANKRD40]
- protein stability index [1]: 3.37 ± 0.62
- protein stability index [2]: 3.57 ± 0.39

Sequence: IYPVWTYSYLVLLFPVFLATDYLR [SLC19A2]
- protein stability index [1]: 3.11 ± 0.53
- protein stability index [2]: 3.29 ± 0.37

Sequence: AMAERNRRDAEEWFHAKSAELNKE [KRT13]
- protein stability index [1]: 5.03 ± 0.27
- protein stability index [2]: 5.01 ± 0.29

Sequence: TDGERVAEVAPEERENVAVAKLQE [SDE2]
- protein stability index [1]: 5.59 ± 0.34
- protein stability index [2]: 5.49 ± 0.38

Sequence: TLHAVEKLQVRLATKTEPKKLEKY [ELOA2]
- protein stability index [1]: 3.7 ± 0.31
- protein stability index [2]: 3.73 ± 0.41

Sequence: TSKDLVTLGASSLREERGHPLHPR [C6orf223]
- protein stability index [1]: 4.26 ± 0.063
- protein stability index [2]: 4.33 ± 0.18

Sequence: LGGYVKIDLATWNFQFLPQVNGHP [PTPN9]
- protein stability index [1]: 2.92 ± 0.57
- protein stability index [2]: 2.74 ± 0.86

Sequence: AAAAMYTFLPDNFSPAKPKPSKEL [MYORG]
- protein stability index [1]: 3.62 ± 0.11
- protein stability index [2]: 3.59 ± 0.3

Sequence: CFPRLDINVSKGINHLLKSPFSVH [PRIM1]
- protein stability index [1]: 2.14 ± 0.68
- protein stability index [2]: 2.05 ± 0.36

Sequence: FSTWNLDHIIEKKRTIIPTLVEAI [DFFB]
- protein stability index [1]: 2.44 ± 0.45
- protein stability index [2]: 2.55 ± 0.34

Sequence: TIKVSYARPSSASIRDANLYVSGL [ELAVL3]
- protein stability index [1]: 2.37 ± 0.076
- protein stability index [2]: 2.23 ± 0.3

Sequence: MGGPAISMASPMSIPTNTMHYGS [CARM1]
- protein stability index [3]: 2.96 ± 0.25
- protein stability index [4]: 2.95 ± 0.23

Sequence: LKRPVNVPFDIFTEEVKFYQLGEE [KCNA4]
- protein stability index [1]: 3.01 ± 0.27
- protein stability index [2]: 3.27 ± 0.37

Sequence: PEKHQVPEKLIWGDQDPLSKIPFK [WDR88]
- protein stability index [1]: 3.72 ± 0.22
- protein stability index [2]: 4.26 ± 0.38

Sequence: WYQPSFHGVDLSALRGAAVDEYFR [CARM1]
- protein stability index [1]: 2.71 ± 0.18
- protein stability index [2]: 2.75 ± 0.34

Sequence: KAPVQNEAPALGGGEYQEPGGNVK [BEX5]
- protein stability index [1]: 5.48 ± 0.21
- protein stability index [2]: 5.54 ± 0.26

Sequence: SAIVLGDLKLRKFVFSTEERTQLR [TRIB1]
- protein stability index [1]: 2.77 ± 0.48
- protein stability index [2]: 2.92 ± 0.29

Sequence: VKGCSMYVALFPCNECAKLIIQAG [DCTD]
- protein stability index [1]: 2.97 ± 0.37
- protein stability index [2]: 2.8 ± 0.49

Sequence: LNLGPALSAALASSQKQHSFTSSD [C8orf76]
- protein stability index [1]: 3.31 ± 0.31
- protein stability index [2]: 3.35 ± 0.19

Sequence: QHLGEYENVLAALEGLNLSILKAM [NECAB1]
- protein stability index [1]: 2.25 ± 0.24
- protein stability index [2]: 2.38 ± 0.23

Sequence: SSCVKYLIFLSNFPFSLLGLLALA [TSPAN10]
- protein stability index [1]: 2.94 ± 0.35
- protein stability index [2]: 2.93 ± 0.35

Sequence: FLADEEFDVVVCDQVSACIPVFRL [ALG2]
- protein stability index [1]: 2.3 ± 0.43
- protein stability index [2]: 2.34 ± 0.47

Sequence: AEKWQKEKDRIKSFTTNEKAILEQ [TRIM29]
- protein stability index [1]: 4.76 ± 0.21
- protein stability index [2]: 4.8 ± 0.22

Sequence: LEENDETRFILSKVPSEAPSPMPT [SLC6A17]
- protein stability index [1]: 4.8 ± 0.15
- protein stability index [2]: 4.84 ± 0.17

Sequence: YLGLPRLEFYRYYQQLKLEGPGEQ [SLC29A1]
- protein stability index [1]: 2.54 ± 0.39
- protein stability index [2]: 2.58 ± 0.38

Sequence: RNHGILMETHKELKPLLSPSSETT [LYSMD4]
- protein stability index [1]: 4.49 ± 0.14
- protein stability index [2]: 4.62 ± 0.3

Sequence: FDPKTKRILTLQKANSWFNCRKN [MMP1]
- protein stability index [3]: 2.84 ± 0.41
- protein stability index [4]: 2.78 ± 0.25

Sequence: LVHSAVDVPTIQEKVNEGKYRSYE [ZMYND11]
- protein stability index [1]: 4.47 ± 0.3
- protein stability index [2]: 4.32 ± 0.2

Sequence: VGAAETTLTELRRTVQSLEIDLDS [KRT18]
- protein stability index [1]: 4.51 ± 0.19
- protein stability index [2]: 4.86 ± 0.24

Sequence: GIAHKIEAGNEFKNIFGTPEFVAP [DAPK3]
- protein stability index [1]: 3.44 ± 0.61
- protein stability index [2]: 3.64 ± 0.39

Sequence: TGEVRTARALLEDDSDTQQVVVLV [PCDHGC5]
- protein stability index [1]: 2.5 ± 0.39
- protein stability index [2]: 2.82 ± 0.27

Sequence: AESQGCNHEEDAGVRCNTPAMGLQ [LOXL2]
- protein stability index [1]: 5.34 ± 0.27
- protein stability index [2]: 5.29 ± 0.3
